Measurements: US20260015420A1 (CENTESSA PHARMACEUTICALS UK, published 2026)

Key:
[1] = target: T1, cynomolgus monkey CD47-Fc (cynomolgus monkey, UniProt Q08722 19-139 (human entry), limits assumed); test: direct ELISA, coated cyno CD47-Fc, OD450
T1 construct: also called cCD47; cyno CD47-Fc; not shown: Fc part
T1 chain: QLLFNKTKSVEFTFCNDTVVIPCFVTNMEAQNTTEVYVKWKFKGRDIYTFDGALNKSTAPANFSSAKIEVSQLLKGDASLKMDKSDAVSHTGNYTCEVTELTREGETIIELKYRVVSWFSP

human CD47-Fc [2] = target: T2, human CD47-Fc (human, UniProt Q08722 19-139); test: direct ELISA, coated human CD47-Fc, OD450
T2 construct: also called hCD47; human CD47-Fc protein; not shown: Fc part

human CD47-Fc [3] = target: T2, human CD47-Fc; test: HTRF epitope competition; competitor Tb-labelled h5F9G4 IgG1 on biotinylated human CD47-Fc
Target sequence in this assay (Q08722 19-139 limits assumed): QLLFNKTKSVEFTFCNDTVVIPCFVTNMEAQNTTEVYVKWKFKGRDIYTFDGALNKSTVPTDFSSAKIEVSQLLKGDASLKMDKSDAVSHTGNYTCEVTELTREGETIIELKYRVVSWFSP

human CD47-Fc [4] = target: T2, human CD47-Fc; test: direct ELISA, coated human CD47-Fc, OD450; remark: listed apart in the source
Target sequence in this assay (Q08722 19-139 limits assumed): as above
Method: To coat ELISA plates sold under the name Greiner Bio-One High Binding ELISA plates, target proteins were diluted to 1 μg/ml in carbonate buffer and added at 100 μl per well, at 4° C., o/n. Coated plates were washed 3× with PBS pH7.4, blocked with 1% BSA in PBS (380 μl/well) for 1 hr at RT, then washed 3× with PBS-non-ionic surfactant sold under the trademark Tween® 20 (PBST). CD47 antibodies (100 μl/well; diluted in PBST) were then added and then incubated 1 hr at RT. Plates were then washed 3× with PBST and goat anti-human kappa chain-HRP added (100 μl/well) at RT, for 1 hr. Plates were then washed 3× with PBST and twice with PBS before the addition of 100 μl TMB per well. Reactions were stopped by adding 100 μl 2M H₂SO₄/well and OD was read on a plate reader at 450 nm.

[5] = target: T3, cynomolgus monkey CD47 on cyno CD47-transfected CHO-K1 cells (cynomolgus monkey, UniProt Q08722 19-323 (human entry)); test: flow cytometry, CHO-K1 cells transfected with cyno CD47, MFI
T3 construct: CHO-K1 cells stably transfected with cyno CD47 full-length cDNA; also called cyno CD47+ cells; cyno CD47+CHO-K1
T3 chain: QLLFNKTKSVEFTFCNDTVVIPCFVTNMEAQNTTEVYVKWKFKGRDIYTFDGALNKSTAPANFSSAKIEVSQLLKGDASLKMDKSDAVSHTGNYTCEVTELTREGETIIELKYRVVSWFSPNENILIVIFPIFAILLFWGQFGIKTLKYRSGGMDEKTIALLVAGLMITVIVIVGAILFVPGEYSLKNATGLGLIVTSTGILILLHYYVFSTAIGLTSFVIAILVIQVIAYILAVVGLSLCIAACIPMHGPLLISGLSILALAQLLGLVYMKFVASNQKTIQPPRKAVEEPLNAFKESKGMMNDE
Method: IgGs were tested at concentrations ranging from 24-100,000 ng/ml.
Antibodies shown to retain binding to CD47 by ELISA were analysed for concentration-dependent binding at the cell surface via flow cytometry. CHO-K1 cells were stably transfected with either human or cyno CD47 full-length cDNAs.

Row | Binder | binding result [1] | binding result (human CD47-Fc [2]) | IC50 (human CD47-Fc [3]) [µg/mL] | other results
1 | A-H3, human IgG1null (antibody, V domains shown, IgG1null; also called Clone A-H3) VH: EVQLVQSGAEVKKPGESLKISCKGSGYSFTNYNIHWVRQMPGKGLEWMGTIYPGNSDTSYNPSFQGQVTISADKSISTAYLQWSSLKASDTAMYYCARGGVRAMDYWGQGTLVTVSS VL: DIVMTQSPLSLPVTPGEPASISCRSSQSLLHSKGNTYLGWYLQKPGQSPQLLIYKGSNRFSGVPDRFSGSGSGTDFTLKISRVEAEDVGVYYCMQASQVPYTFGQGTKLEIK | binds | binds |  | 
2 | B-A6, human IgG1null (antibody, V domains shown, IgG1null; also called Clone B-A6) VH: EVQLVQSGAEVKKPGESLKISCKGSGYSFTNYNIHWVRQMPGKGLEWMGTIYPGDSDTRYNQKFQGQVTISADKSISTAYLQWSSLKASDTAMYYCARGGIRAMDYWGQGTLVTVSS VL: DIVMTQSPLSLPVTPGEPASISCRSSQSLLHSNGNTYLGWYLQKPGQSPQLLIYKGSNRFSGVPDRFSGSGSGTDFTLKISRVEAEDVGVYYCFQGSHVPYIFGQGTKLEIK | binds | binds |  | 
3 | B-D2, human IgG1null (antibody, V domains shown, IgG1null; also called Clone B-D2) VH: EVQLVQSGAEVKKPGESLKISCKGSGYSFTNYNIHWVRQMPGKGLEWMGTIYPGNSDTRYNPSFQGQVTISADKSISTAYLQWSSLKASDTAMYYCARGGERAMDYWGQGTLVTVSS VL: DIVMTQSPLSLPVTPGEPASISCRSSQSLLHSNGNTYLGWYLQKPGQSPQLLIYKGSNRFSGVPDRFSGSGSGTDFTLKISRVEAEDVGVYYCFQASQVPYTFGQGTKLEIK | binds | binds |  | 
4 | C-D5, human IgG1null (antibody, V domains shown, IgG1null; also called Clone C-D5) VH: EVQLVQSGAEVKKPGESLKISCKGSGYSFTNYNIHWVRQMPGKGLEWMGTIYPGDSDTRYNPKFQGQVTISADKSISTAYLQWSSLKASDTAMYYCARGGIRAMDYWGQGTLVTVSS VL: DIVMTQSPLSLPVTPGEPASISCRSSQSLLHSNYNTYLGWYLQKPGQSPQLLIYKGSNRFSGVPDRFSGSGSGTDFTLKISRVEAEDVGVYYCFQGSQTPYTFGQGTKLEIK | binds | binds |  | 
5 | D-C12, human IgG1null (antibody, V domains shown, IgG1null; also called Clone D-C12) VH: EVQLVQSGAEVKKPGESLKISCKGSGYSFTNYNIHWVRQMPGKGLEWMGTIYPGNSDTRYNPKFQGQVTISADKSISTAYLQWSSLKASDTAMYYCARGGFRAMDYWGQGTLVTVSS VL: DIVMTQSPLSLPVTPGEPASISCRSSQSLLHSNGNTYLGWYLQKPGQSPQLLIYKGSNRFSGVPDRFSGSGSGTDFTLKISRVEAEDVGVYYCMQGSHVPYTFGQGTKLEIK | binds | binds |  | 
6 | E-C5, human IgG1null (antibody, V domains shown, IgG1null; also called Clone E-C5) VH: EVQLVQSGAEVKKPGESLKISCKGSGYSFTNYNIHWVRQMPGKGLEWMGTIYPGDSDTSYNPKFQGQVTISADKSISTAYLQWSSLKASDTAMYYCARGGYRAQDYWGQGTLVTVSS VL: DIVMTQSPLSLPVTPGEPASISCRSSQSLLHSNGNTYLGWYLQKPGQSPQLLIYKGSNRFSGVPDRFSGSGSGTDFTLKISRVEAEDVGVYYCMQASHVPYTFGQGTKLEIK | binds | binds |  | 
7 | E-D6, human IgG1null (antibody, V domains shown, IgG1null; also called Clone E-D6) VH: EVQLVQSGAEVKKPGESLKISCKGSGYSFTNYNIHWVRQMPGKGLEWMGTIYPGDSDTSYNPKFQGQVTISADKSISTAYLQWSSLKASDTAMYYCARGGYRAEDYWGQGTLVTVSS VL: DIVMTQSPLSLPVTPGEPASISCRSSQSLLHSNGNTYLGWYLQKPGQSPQLLIYKGSNRFSGVPDRFSGSGSGTDFTLKISRVEAEDVGVYYCMQGSHVPYTFGQGTKLEIK | binds | binds |  | 
8 | F-G3, human IgG1null (antibody, V domains shown, IgG1null; also called clone F-G3) VH: EVQLVQSGAEVKKPGESLKISCKGSGYSFTNYNIHWVRQMPGKGLEWMGTIYPGNSDTSYNHKFQGQVTISADKSISTAYLQWSSLKASDTAMYYCARGGNRAEDYWGQGTLVTVSS VL: DIVMTQSPLSLPVTPGEPASISCRSSQSLLHSNGNTYLGWYLQKPGQSPQLLIYKGSNRFSGVPDRFSGSGSGTDFTLKISRVEAEDVGVYYCMQASQVPYTFGQGTKLEIK | binds | binds |  | 
9 | VH1.1/VL1.6, human IgG1null (antibody, V domains shown, cf. claim 50); IgG1null; also called Clone VH1.1/VL1.6) VH: QVQLVQSGAEVKKPGASVKVSCKASGYTFTNYAMHWVRQAPGQRLEWMGTIYPGNDDTKYNQKFQGRVTITADTSASTAYMELSSLRSEDTAVYYCARGGYRAEDYWGQGTLVTVSS VL: DIVMTQSPLSLPVTPGEPASISCRSSQSLLHSNANTYLGWYLQKPGQSPQLLIYKGSNRFSGVPDRFSGSGSGTDFTLKISRVEAEDVGVYYCFQASHVPYTFGQGTKLEIK |  |  | 6.96 | 
10 | VH1.6/VL1.6, human IgG1null (antibody, V domains shown, VH assembled as for m35; IgG1null) VH: QVQLVQSGAEVKKPGASVKVSCKASGYTFTNYAMHWVRQAPGQRLEWMGTIYPGNDDTSYSQKFQGRVTITADTSASTAYMELSSLRSEDTAVYYCARGGYRAEDYWGQGTLVTVSS VL: DIVMTQSPLSLPVTPGEPASISCRSSQSLLHSNANTYLGWYLQKPGQSPQLLIYKGSNRFSGVPDRFSGSGSGTDFTLKISRVEAEDVGVYYCFQASHVPYTFGQGTKLEIK |  |  | 14 | 
11 | VH1.7/VL1.6, human IgG1null (antibody, V domains shown, VH assembled as for m35; IgG1null; also called Clone VH1.7/VL1.6) VH: QVQLVQSGAEVKKPGASVKVSCKASGYTFTNYNIHWVRQAPGQRLEWMGTIYPGNDDTSYSQKFQGRVTITADTSASTAYMELSSLRSEDTAVYYCARGGFRAMDYWGQGTLVTVSS VL: DIVMTQSPLSLPVTPGEPASISCRSSQSLLHSNANTYLGWYLQKPGQSPQLLIYKGSNRFSGVPDRFSGSGSGTDFTLKISRVEAEDVGVYYCFQASHVPYTFGQGTKLEIK |  |  | 4.64 | 
12 | VH1.8/VL1.1, human IgG1null (antibody, V domains shown, IgG1null (L234A/L235A/G237A); also called Clone VH1.8/VL1.1) VH: QVQLVQSGAEVKKPGASVKVSCKASGYTFTNYAMHWVRQAPGQRLEWMGTIYPGNDDTKYNQKFQGRVTITADTSASTAYMELSSLRSEDTAVYYCARGGFRAMDYWGQGTLVTVSS VL: DIVMTQSPLSLPVTPGEPASISCRSSQSLLHSNGNTYLGWYLQKPGQSPQLLIYKGSNRFSGVPDRFSGSGSGTDFTLKISRVEAEDVGVYYCFQASHVPYTFGQGTKLEIK |  |  | 0.459 | EC50 (read off the curve) (human CD47-Fc [4]): ~0.06 µg/mL; binding result [5]: binds
13 | VH1.8/VL1.2, human IgG1null (antibody, V domains shown, IgG1null; also called Clone VH1.8/VL1.2) VH: QVQLVQSGAEVKKPGASVKVSCKASGYTFTNYAMHWVRQAPGQRLEWMGTIYPGNDDTKYNQKFQGRVTITADTSASTAYMELSSLRSEDTAVYYCARGGFRAMDYWGQGTLVTVSS VL: DIVMTQSPLSLPVTPGEPASISCRSSQSLLHSNGNTYLGWYLQKPGQSPQLLIYKGSNRFSGVPDRFSGSGSGTDFTLKISRVEAEDVGVYYCFQASQVPYTFGQGTKLEIK |  |  | 0.586 | EC50 (read off the curve) (human CD47-Fc [4]): ~0.06 µg/mL; binding result [5]: binds
14 | VH1.9/VL1.6, human IgG1null (antibody, V domains shown, IgG1null) VH: QVQLVQSGAEVKKPGASVKVSCKASGYTFTNYAMHWVRQAPGQRLEWMGTIYPGNDDTKYSQKFQGRVTITADTSASTAYMELSSLRSEDTAVYYCARGGYRAEDYWGQGTLVTVSS VL: DIVMTQSPLSLPVTPGEPASISCRSSQSLLHSNANTYLGWYLQKPGQSPQLLIYKGSNRFSGVPDRFSGSGSGTDFTLKISRVEAEDVGVYYCFQASHVPYTFGQGTKLEIK |  |  | 11.1 | 
15 | VH1.7/VL1.4, human IgG1null (antibody, V domains shown, VH assembled as for m35; IgG1null) VH: QVQLVQSGAEVKKPGASVKVSCKASGYTFTNYNIHWVRQAPGQRLEWMGTIYPGNDDTSYSQKFQGRVTITADTSASTAYMELSSLRSEDTAVYYCARGGFRAMDYWGQGTLVTVSS VL: DIVMTQSPLSLPVTPGEPASISCRSSQSLLHSNAYNYLGWYLQKPGQSPQLLIYKGSNRFSGVPDRFSGSGSGTDFTLKISRVEAEDVGVYYCFQASQVPYTFGQGTKLEIK |  |  | 22.6 | 
16 | VH1.7/VL1.5, human IgG1null (antibody, V domains shown, VH assembled as for m35; IgG1null; also called Clone VH1.7/VL1.5) VH: QVQLVQSGAEVKKPGASVKVSCKASGYTFTNYNIHWVRQAPGQRLEWMGTIYPGNDDTSYSQKFQGRVTITADTSASTAYMELSSLRSEDTAVYYCARGGFRAMDYWGQGTLVTVSS VL: DIVMTQSPLSLPVTPGEPASISCRSSQSLLHSNAYNYLGWYLQKPGQSPQLLIYKGSNRFSGVPDRFSGSGSGTDFTLKISRVEAEDVGVYYCFQASHVPYTFGQGTKLEIK |  |  | 9.53 | 
17 | VH1.12/VL1.8, human IgG1null (antibody, V domains shown, IgG1null; also called VH1.12/VL8) VH: QVQLVQSGAEVKKPGASVKVSCKASGYTFTNYAMHWVRQAPGQRLEWMGTIYPGNDNTKYNQKFQGRVTITADTSASTAYMELSSLRSEDTAVYYCARGGFRAMDYWGQGTLVTVSS VL: DIVMTQSPLSLPVTPGEPASISCRSSQSLLHSNAYNYLGWYLQKPGQSPQLLIYKGSNRFSGVPDRFSGSGSGTDFTLKISRVEAEDVGVYYCMQASHVPYTFGQGTKLEIK |  |  | 16.3 | 
